# Results published in the nanobody polyreactivity screen of Harvey et al. (2022).
# Experiment: yeast display, Sf9 membrane polyspecificity reagent, FACS + sequencing; frameworks hold sequencing errors
# How it was run: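 In a synthetic yeast display library (Saccharomyces cerevisiae BJ5465), nanobody expression was induced with galactose for 36–48 hours. FACS gates were set low and high (top ~1%) using anti-HA fluorescence for expression and streptavidin fluorescence for binding of the Sf9 membrane reagent. Each polyreactivity label is drawn from the gate of origin.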
row,Sequence,polyreactivity (PSR sort gate)
1,QVQLVESGGGLVQAGGSLRLICAASGTFRINAMGWYRQAPGKEREFVATITSGGSTNYADSVKGRFTISRDNAKNTVYLQMNSLKPEDTAVYYCSRTRKIAGYYFWGQGTQVTVSS,high polyreactivity
2,QVQLVESGGGLVQAGGSLRLICAASGTNFVFNAIGWYRQAPGKERELVAINSGGSTYYADSVKGRFTNSRDNAKNTVFLQMNSLIPEDTAVYYCAKDRLRVWRFDYWGQGTQVTVST,low polyreactivity
3,QVQLVESGGGLVQAGGSLRLICAASGYIFATYAMGWYRQAPGKERELVAAITSTGSTYYADSVKGRFTISRDNAKNTVYLQMNSLKPEDTAVYYCAAVSGYRARYYLYYYWGQGTQVTVSS,high polyreactivity
4,QVQLVESGGGLVQAGGSLRLICAASGYTFKIKGMGWYRQAPGKERELVATIRAGGGNTYYADSVKGRFTISRDNAKNTVYLQMNSLKPEDTAVYYCNARYLRRTMEYWGQGTQVTVSS,high polyreactivity
5,QVQLVESGGGLVQAGGSLRLICAASGYTFLDYARGWYRQAPGKERELVASITSSGGSTYYADSVKGRFTISRDNAKNTVFLQMMSLIPEDTAVYYCASDGCIYYYFTLRYGYWGQGTQVTVSS,low polyreactivity
6,QVQLVESGGGLVQAGGSLRLICAASGYTFSFYAMGWYIQAPGKERELVAAISRSGGSTYYADSVKGRFTISRDNAKNTVYLQMNSLKPEYTAVYYCAARWPGAYHEYGYWGQGTQVTVSS,high polyreactivity
7,QVQLVESGGGLVQAGGSLRLICAASGYTFYAYAMGWYRQAPGKERELVAAITSGSSTYYADSVKGRFTISRDNAKNTVYLQMNSLKQEDTAVYYCASRIRGWRLLTSYYWGQGTQVTVSS,low polyreactivity
8,QVQLVESGGGLVQAGGSLRLICAASVSTFRKYAMGRYRQAPGKEREFVAAISSSGGRTYYADSVKGRFTISRDNAKNTVYLQMNSLKPEDTAVYYCNAYFRYSYDYWGQGTQVTVSS,high polyreactivity
9,QVQLVESGGGLVQAGGSLRLICAATGITLGYYAMGWYRQAPGKERELVAAISYRGGNTYYADSVKGRFTISRDNAKNTVYLQMNSLKPEDTAVYYCNADLGYESGWWSKYDYWGQGTQVTVSS,low polyreactivity
10,QVQLVESGGGLVQAGGSLRLICAATGRNFRYYAMGWYRQAAGKERQLVAAIRNGGSTYYADSVKGRFTISRDNAKNTVYLQMNSLKPEDTAVYYCAGRYNYVSHRGGDWGHGTQVTVSS,high polyreactivity
11,QVQLVESGGGLVQAGGSLRLICAAYGSTFVTNVMGWYRQAPGKERELVAAISARGGSTYYADSVKGRFTISRDNAKNTVYLQMNSLKPEDTAVYYCNAVVRPWQSYYYWGQGTQVTVSS,high polyreactivity
12,QVQLVESGGGLVQAGGSLRLICADSGLIFRWYAMGWYRQAPGKERELVAAISRRGGTTNYADSVKGRFTISRDNAKNTVYLQMNSLKPEDTAVYYCAVSGGFYWGQGTQVTVSS,high polyreactivity
13,QVQLVESGGGLVQAGGSLRLICADSGRILGINAMGWYRQAPGKERELVAAISSGGSTYYADSVKGRFTISRDNAKNTVYLQMNSLKPEDTAVYYCNVGSYAGWSDHPRYGYWGQGTQVTVSS,high polyreactivity
14,QVQLVESGGGLVQAGGSLRLICADSGSIFDGNVMGWYRQAPGKERDLVAAISGARTNYADSVKGRFTISRDNAKNTVYLQMNSLKAEDTAVYYCNVLPVGSEYDYWGQGTQVTVST,low polyreactivity
15,QVQLVESGGGLVQAGGSLRLICDASGFTFGVYAMGWYRQAPGKETELVAAISTTVGSTYYADSVKGRFTISRDNAKNNVYLQLNRLKPEDTALYYCAAEYTGYLNYYIYEYWGQGTQVTVSS,low polyreactivity
16,QVQLVESGGGLVQAGGSLRLICDASGRIFRSYAMGWYRQAPGKERELVAAINWRGGSTFYADSVKGRFTISRDNAKNTVYLQMNSLKPEDTAVYYCARRGYRQSGDYWGQGTQVTVSS,low polyreactivity
17,QVQLVESGGGLVQAGGSLRLICEASGFIFDDNAIGSYRQAPGKERELVAAITSGGGSTYYADSVKGRCTISRDYAKNTVYLHMNSLKPEDTAVYYCNAVPSQHDEFDYWGQGTQVTVSS,low polyreactivity
18,QVQLVESGGGLVQAGGSLRLIFAASGFTFGGYAMGWYRQGPGKERELVAGISYRGGSTYYADSVKGRFTISRDNAKNTVYLQMNSLKPEDTAVYYCAADRGYPGKVDYWGQGTQVTVSS,low polyreactivity
19,QVQLVESGGGLVQAGGSLRLIFAASGIIFGRYPMGWYRPAPGKERELVAAITSGGSTSYADSVKGRFTISRDNAKNTVYLQMNSLKPEDTAVYYCAVVFVWGWPGYYWGQGTQVTVSS,high polyreactivity
20,QVQLVESGGGLVQAGGSLRLISAASGSIFAKYAMGWYRHAPGKERELVAAITGSGGSTYYADSVKGRFTISRDNAKNTVYLQMNSMKPEDPAVYYCAKRRPRYTYNYCGQGTQVTVSS,high polyreactivity
21,QVQLVESGGGLVQAGGSLRLISAASGSTFPPYSMGWYSQAPGKEWEVVADITRRGASTYYADSVKVRFTISRDNAKNTVYLQMNSLKPEDTAVYYCAARYYDQYYSGFDYWGQGTQVTVSS,high polyreactivity

row,Sequence,polyreactivity (PSR sort gate)
1,QVQLVESGGGLVQAGGSLRLLCAASGFTFFRYAKGWYRQAPGKERELLATINWSGGRTYYADSVKGRFTISRDNAKNTVYLQMNSLKPEDTAVYYSNAYYPSSFWRMDYWGQGTQVTVSS,high polyreactivity
2,QVQLVESGGGLVQAGGSLRLNCAASGGIFAYNAMGWYRQAPGKEMELVAAITYGGGSTYYADSVKGRFTISRDNAKNTVYLQMNSLKPEDTAVYYCATRGHYHAFYYTYPRYDSWGQGTQVTVSS,low polyreactivity
3,QVQLVESGGGLVQAGGSLRLNCAASGRIFGYNDMGWSRQAPGKERELVAAIDYSAGSTYYADSVKGRFTISRDNAKNTVNLQMNSLKPEDTAVYYCNTDSESSLLSSRGYWGQGTQVTVSS,low polyreactivity
4,QVQLVESGGGLVQAGGSLRLNCAASGRIFKYNTRGWYRQAPGKERQLVAAISLSTGSGGGTRYADSVKGRFTISRDNAKNTVYLKMNSLNPEDTAVYYCAARHRYTNEYDYWGQGTQVTVSS,low polyreactivity
5,QVQLVESGGGLVQAGGSLRLNCAASGSIFDHYAMGWYRQAPGKERELVAAINIRTGYTYYADSVKGRFTISRDNAKNTVYLQMNSLKPEDTAVYYCNRVVRGFVRHLDYWGQGTQVTVSS,low polyreactivity
6,QVQLVESGGGLVQAGGSLRLRCAAMGWYRQAPWKERELVAGITRDGNTYYADSVKGRFTISRDNAKNTVYLQMNSLKPEDTAVYYCAAKHPKKYSYWGQGTQVSVSS,low polyreactivity
7,QVQLVESGGGLVQAGGSLRLRCAASARIYDTYAMGWYRQAPGKERELVASISIDGSTYYADSVKGRFTISRDNAKNTVYLQMNSLKREDTAVYYCNADGRYYTVRFEYWGQGTQVTVSS,low polyreactivity
8,QVQLVESGGGLVQAGGSLRLRCAASARTFAGYALGWYRQAPGKERELVAAITTGGSTKYADSVKGRFTISRDNAKNTVYLQMNSLKQEDTAVYYCAAESYYKYFNKYDYWGQGTQVTVSS,high polyreactivity
9,QVQLVESGGGLVQAGGSLRLRCAASGFIFCQYSMGWYRQAPGKERELVAAITWGGTNTYYADSVKGRFTISRDNAKNTVYLQMNSLKPEDTAVYYCAADNSPFTGNLDYWGQGTQVTVSS,low polyreactivity
10,QVQLVESGGGLVQAGGSLRLRCAASGFIFIFNAMGWYRQAPGKERELLAAIDTSDDSTYYADSVKGRFTISRDNAKNTVYLQMNSLYPEDTAVYYCAAEELSNYEYWGQGTQVSVSS,low polyreactivity
11,QVQLVESGGGLVQAGGSLRLRCAASGFIFWMNAMGWYRQAPGKERELVAAISIGGRTNYADSVKGRFTISRDNSKNTVYLQMNSLKPEDTAVYYCNKDYRSVYKGGGFDYWGQGTQVTVST,low polyreactivity
12,QVQLVESGGGLVQAGGSLRLRCAASGFISGYNTMGWYRQAAGKEMEFVAAISVSGGRTYYADSVKGRFTFSRDNAKNTVYLQMNSLKPEDTAVYYCAGRYWSWRSFKVDYWGQGTQVTVSS,high polyreactivity
13,QVQLVESGGGLVQAGGSLRLRCAASGFNHKPMGCYRQAPGKERELVAAISYSAGSTYYADSVKGRFTISRDNAKNTVYLQMNSLKPEDTAVYYCDIRYNYFTGTLSRYYSNIYGYWGQGTQVTVSS,high polyreactivity
14,QVQLVESGGGLVQAGGSLRLRCAASGFTFGYNAMGWYRQAPGKERELVAAIYFSDGITYYADSVKGRFTISRDNAKNTVYLQMNSLKPEDTAVYYCAADLYFEYEYWGQGTQVTVSS,high polyreactivity
15,QVQLVESGGGLVQAGGSLRLRCAASGFTFPSYPMGWYRQAPGKEREVVAAISQRGGSTYYADSEKGRFTISRDNAKHTVYLQLNSLKPEDTAVYYCAALAPRTGRPTYGYWGQGTQVTVSS,low polyreactivity
16,QVQLVESGGGLVQAGGSLRLRCAASGFTIGANTMGWYRQAPGKEWELVASISASGGSTYYADSVKGRVTISRDNAKNTVYVQMNSLKPDDTAGYYCAARRYPGRTATYYSWGQGTQVTVSS,high polyreactivity
17,QVQLVESGGGLVQAGGSLRLRCAASGGTFYPYALGWYRQAPGKESELVAAISTSGGITYYADSVKARFTISRDNAKNTVYLQMNSLKPEDTAVYYCAAPVAYRGSRNFIYRYNYWGQGTQVTVSS,high polyreactivity
18,QVQLVESGGGLVQAGGSLRLRCAASGHIFRQYAMGWYRQAPGKERELVAAITSGGSTYYADSVKGRFTISRDNAKNTVYLEMNSLKPEDNAVYYCADKYFFSYRHGDYWGQGNQVTVSS,low polyreactivity
19,QVQLVESGGGLVQAGGSLRLRCAASGIIFDGNVMGWYSQAPGKEREFVASISISGGSTSYADSVKGRFTISRDNAKNTVYLQMNSLNPEDTAVYYCNTDVGYGRVWRWRYHGDYWGQGTQVTVSS,low polyreactivity
20,QVQLVESGGGLVQAGGSLRLRCAASGIIIYDYAMGWYRQAPGKERELVAAISSTAVGTYYADSVKGRFTISRDNAKNTVYLQMNSLKPVDTAVYYCAAAVSPHSEGFGEYNYWGQGTQVTVSS,low polyreactivity
